{"source": "paper PMC6882556", "about": "“Cryo-EM structure of the KvAP channel reveals a non-domain-swapped voltage sensor topology” (eLife, 2019)", "proteins": {"B1": {"name": "KvAP, voltage-gated K+ channel from Aeropyrum pernix (residues 12-282) (natural protein, UniProt Q9YDF8 25-295, looked up)", "chain": "GGRVRNIGDVMEHPLVELGVSYAALLSVIVVVVEYTMQLSGEYLVRLYLVDLILVIILWADYAYRAYKSGDPAGYVKKTLYEIPALVPAGLLALIEGHLAGLGLFRLVRLLRFLRILLIISRGSKFLSAIADAADKIRFYHLFGAVMLTVLYGAFAIYIVEYPDPNSSIKSVFDALWWAVVTATTVGYGDVVPATPIGKVIGIAVMLTGISALTLLIGTVSNMFQKILVGEPEPSCSPAKLAEMVSSMSEEEFEEFVRTLKNLRRLENSMK", "notes": "KvAP, voltage-gated potassium channel of Aeropyrum pernix, residues 12-282; In the cryo-EM sample the tetramer carried 6E1 Fab fragments on its voltage sensors; also called KvAP tetramer"}}, "molecular_target": "the molecule itself", "assay": "cryo-EM structure; KvAP(12-282) tetramer purified as a complex with 6E1 Fab; 20 mM Tris-HCl pH 8.0, 150 mM KCl, 0.06% digitonin; C4 symmetry applied; final map ~5.9 Å", "data": [{"protein": "B1", "values": [{"measurement": "stoichiometry N", "value": 4}]}]}
